{"source": "paper PMC12990809", "test_in_all_cases": "pulldown", "conditions_in_all_cases": "20 nM protein, 1.5 uM RNA pool; 20 mM HEPES pH 7.8, 70 mM KCl, 10 mM NaCl, 10% glycerol, 2 mM DTT, 0.1 ug/uL BSA; 30 min, 4 C", "key": {"[1]": {"biological_target": "T1, TBPH (Drosophila melanogaster) (UniProt E1JGV0)", "T1 sequence": "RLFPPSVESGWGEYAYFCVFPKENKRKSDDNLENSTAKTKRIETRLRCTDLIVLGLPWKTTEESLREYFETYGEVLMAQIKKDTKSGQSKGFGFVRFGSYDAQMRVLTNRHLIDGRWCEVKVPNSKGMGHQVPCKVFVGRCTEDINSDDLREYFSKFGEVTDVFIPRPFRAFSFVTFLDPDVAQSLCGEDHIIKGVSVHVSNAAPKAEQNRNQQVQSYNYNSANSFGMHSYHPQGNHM"}, "[2]": {"biological_target": "T2, NCU00556 (Neurospora crassa) (UniProt Q7SF93)", "T2 sequence": "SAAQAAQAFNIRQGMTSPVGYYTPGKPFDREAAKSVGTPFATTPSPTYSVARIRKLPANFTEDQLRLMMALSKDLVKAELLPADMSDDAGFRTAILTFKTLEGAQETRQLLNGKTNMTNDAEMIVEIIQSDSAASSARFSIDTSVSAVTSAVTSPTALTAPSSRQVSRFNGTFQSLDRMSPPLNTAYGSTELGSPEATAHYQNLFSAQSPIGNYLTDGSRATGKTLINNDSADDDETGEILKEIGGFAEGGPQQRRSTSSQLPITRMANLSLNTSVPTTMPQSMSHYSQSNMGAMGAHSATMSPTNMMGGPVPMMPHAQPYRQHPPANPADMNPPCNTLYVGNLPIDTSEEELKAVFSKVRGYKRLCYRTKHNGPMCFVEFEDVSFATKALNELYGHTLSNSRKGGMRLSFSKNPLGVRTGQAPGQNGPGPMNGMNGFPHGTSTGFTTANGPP"}, "[3]": {"biological_target": "T3, Tb11.01.5690 S174N (Trypanosoma brucei) (UniProt Q382C7)", "T3 sequence": "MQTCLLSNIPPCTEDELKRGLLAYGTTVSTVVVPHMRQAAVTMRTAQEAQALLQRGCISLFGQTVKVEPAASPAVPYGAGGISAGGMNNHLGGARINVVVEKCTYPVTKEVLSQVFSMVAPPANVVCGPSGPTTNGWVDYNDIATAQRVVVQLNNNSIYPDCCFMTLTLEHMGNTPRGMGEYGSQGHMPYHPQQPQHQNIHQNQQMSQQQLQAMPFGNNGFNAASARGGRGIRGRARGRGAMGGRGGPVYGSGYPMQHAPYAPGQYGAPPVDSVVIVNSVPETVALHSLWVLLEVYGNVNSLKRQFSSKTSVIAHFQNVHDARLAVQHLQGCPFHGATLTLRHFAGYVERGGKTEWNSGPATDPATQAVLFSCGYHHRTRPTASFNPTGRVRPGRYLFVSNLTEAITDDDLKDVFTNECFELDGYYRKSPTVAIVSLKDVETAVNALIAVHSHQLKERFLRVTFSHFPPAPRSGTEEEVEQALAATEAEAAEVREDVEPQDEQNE"}, "[4]": {"biological_target": "T4, PK07890.1 (Cannabis sativa) (UniProt A0A7J6I7X4)", "T4 sequence": "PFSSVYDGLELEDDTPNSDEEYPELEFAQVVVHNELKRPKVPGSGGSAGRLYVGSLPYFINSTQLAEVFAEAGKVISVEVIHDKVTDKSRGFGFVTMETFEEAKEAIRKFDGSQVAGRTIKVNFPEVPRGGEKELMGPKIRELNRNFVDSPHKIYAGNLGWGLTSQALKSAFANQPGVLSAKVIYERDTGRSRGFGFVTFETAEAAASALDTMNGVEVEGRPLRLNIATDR"}, "[5]": {"biological_target": "T5, NCU00707 (Neurospora crassa) (UniProt Q7SET9)", "T5 sequence": "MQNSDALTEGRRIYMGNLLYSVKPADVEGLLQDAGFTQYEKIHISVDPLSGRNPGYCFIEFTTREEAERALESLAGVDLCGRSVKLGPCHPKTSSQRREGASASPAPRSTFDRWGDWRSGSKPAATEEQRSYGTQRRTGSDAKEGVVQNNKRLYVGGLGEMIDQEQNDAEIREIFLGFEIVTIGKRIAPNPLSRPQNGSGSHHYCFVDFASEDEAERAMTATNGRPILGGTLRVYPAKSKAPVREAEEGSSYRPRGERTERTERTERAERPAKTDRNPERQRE"}, "[6]": {"biological_target": "T6, ENSGALG00000014089 (Gallus gallus) (UniProt A0A8V0XZS6)", "T6 sequence": "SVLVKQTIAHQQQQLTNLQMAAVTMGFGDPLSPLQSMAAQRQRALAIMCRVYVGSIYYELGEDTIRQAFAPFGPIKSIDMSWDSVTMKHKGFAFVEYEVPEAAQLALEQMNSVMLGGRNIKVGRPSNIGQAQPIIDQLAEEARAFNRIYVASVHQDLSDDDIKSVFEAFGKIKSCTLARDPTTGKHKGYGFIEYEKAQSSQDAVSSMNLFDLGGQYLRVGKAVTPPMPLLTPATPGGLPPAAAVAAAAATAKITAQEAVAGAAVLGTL"}, "[7]": {"biological_target": "T7, PK21582.1 S73F;V173L (Cannabis sativa) (UniProt A0A7J6HF55)", "T7 sequence": "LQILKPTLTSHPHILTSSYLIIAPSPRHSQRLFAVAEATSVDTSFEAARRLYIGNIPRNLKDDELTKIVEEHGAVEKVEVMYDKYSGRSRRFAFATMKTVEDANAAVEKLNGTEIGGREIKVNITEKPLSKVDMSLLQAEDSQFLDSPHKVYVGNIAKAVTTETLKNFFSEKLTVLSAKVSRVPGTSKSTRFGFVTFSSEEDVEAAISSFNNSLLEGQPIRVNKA"}, "[8]": {"tested_on": "T8, ENSMODG00000011903 (Monodelphis domestica)", "T8 sequence": "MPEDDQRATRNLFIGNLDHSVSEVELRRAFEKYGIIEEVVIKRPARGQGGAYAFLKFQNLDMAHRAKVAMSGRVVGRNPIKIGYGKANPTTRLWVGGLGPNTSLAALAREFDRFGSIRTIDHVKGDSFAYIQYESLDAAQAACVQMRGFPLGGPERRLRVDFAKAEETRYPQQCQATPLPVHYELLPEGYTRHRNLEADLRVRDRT"}, "[9]": {"biological_target": "T9, PK00353.1 del132-144;P293S (Cannabis sativa) (UniProt A0A7J6GFS8)", "T9 sequence": "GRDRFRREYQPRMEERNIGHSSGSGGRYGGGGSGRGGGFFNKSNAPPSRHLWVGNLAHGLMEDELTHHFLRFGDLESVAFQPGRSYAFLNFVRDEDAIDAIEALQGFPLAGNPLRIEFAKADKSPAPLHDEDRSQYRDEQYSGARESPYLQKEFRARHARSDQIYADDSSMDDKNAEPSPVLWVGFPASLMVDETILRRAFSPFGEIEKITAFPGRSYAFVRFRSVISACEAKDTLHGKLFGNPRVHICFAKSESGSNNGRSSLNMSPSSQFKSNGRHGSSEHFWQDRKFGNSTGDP"}}, "data": [{"substance": "GANUGA [RNAcompete motif RNCMPT00776]", "values": [{"measurement": "binding signal (z-score (mean of top ten 7-mers))", "setting": "[1]", "value": 9.14}]}, {"substance": "UUGCAU [RNAcompete motif RNCMPT00754]", "values": [{"measurement": "binding signal (z-score (mean of top ten 7-mers))", "setting": "[2]", "value": 14.3}]}, {"substance": "GAAAGAAA [RNAcompete motif RNCMPT00773]", "values": [{"measurement": "binding signal (z-score (mean of top ten 7-mers))", "setting": "[3]", "value": 9.18}]}, {"substance": "GAUACU [RNAcompete motif RNCMPT00790]", "values": [{"measurement": "binding signal (z-score (mean of top ten 7-mers))", "setting": "[4]", "value": 15.3}]}, {"substance": "UUAUGA [RNAcompete motif RNCMPT00768]", "values": [{"measurement": "binding signal (z-score (mean of top ten 7-mers))", "setting": "[5]", "value": 7.83}]}, {"substance": "UUUUUUU [RNAcompete motif RNCMPT00760]", "values": [{"measurement": "binding signal (z-score (mean of top ten 7-mers))", "setting": "[6]", "value": 11.4}]}, {"substance": "ANUGGAA [RNAcompete motif RNCMPT00792]", "values": [{"measurement": "binding signal (z-score (mean of top ten 7-mers))", "setting": "[7]", "value": 10.3}]}, {"substance": "UUUUUUG [RNAcompete motif RNCMPT00758]", "values": [{"measurement": "binding signal (z-score (mean of top ten 7-mers))", "setting": "[8]", "value": 7.84}]}, {"substance": "CAAAGCA [RNAcompete motif RNCMPT00789]", "values": [{"measurement": "binding signal (z-score (mean of top ten 7-mers))", "setting": "[9]", "value": 7.23}]}]}
